The text below walks through data of US20230257473A1 (TENEOBIO, published 2023).

Test [1] addresses recombinant BCMA (R&D Systems, catalog no. 193-BC) (human) (UniProt Q02223). Kind of test: competitive ELISA, plate-bound BCMA; Ab 200.000 ng/mL; competitor APRIL 15.63 ng/mL. In general terms: An ELISA detects its analyte on a solid surface through an enzyme-linked reagent.
The target is the same in test [2]. Kind of test: competitive ELISA, plate-bound BCMA; Ab 0.020 ng/mL; competitor APRIL 62.50 ng/mL.
Test [3] shares this target. Put plainly: competitive ELISA, plate-bound BCMA; Ab 20.000 ng/mL; competitor APRIL 125.00 ng/mL.
For test [4] the target is unchanged. Put plainly: competitive ELISA, plate-bound BCMA; Ab 2.000 ng/mL; competitor APRIL 0.00 ng/mL.
Test [5] addresses BCMA on BCMA-expressing cells (H929 / NCI-H929, MM1.S, U266, Daudi) (human) (UniProt Q02223). Kind of test: flow cytometry on H929 cells; antibody 1.560 ng/ml. For orientation: In flow cytometry, cells or beads pass a laser one at a time.
The target of test [6] is recombinant BCMA (R&D Systems, catalog no. 193-BC) (human) (UniProt Q02223). Kind of test: competitive ELISA, plate-bound BCMA; Ab 0.002 ng/mL; competitor APRIL 0.00 ng/mL.
Test [7] shares this target. Kind of test: competitive ELISA, plate-bound BCMA; Ab 200.000 ng/mL; competitor APRIL 125.00 ng/mL.
For test [8] the target is unchanged. Put plainly: competitive ELISA, plate-bound BCMA; Ab 0.002 ng/mL; competitor APRIL 15.63 ng/mL.
The target is the same in test [9]. Kind of test: competitive ELISA, plate-bound BCMA; Ab 20.000 ng/mL; competitor APRIL 250.00 ng/mL.
The target is the same in test [10]. Put plainly: competitive ELISA, plate-bound BCMA; Ab 2.000 ng/mL; competitor APRIL 31.25 ng/mL.
The target of test [11] is BCMA on BCMA-expressing cells (H929 / NCI-H929, MM1.S, U266, Daudi) (human) (UniProt Q02223). Put plainly: flow cytometry on H929 cells; antibody 100.000 ng/ml.
Chain of BCMA on BCMA-expressing cells (H929 / NCI-H929, MM1.S, U266, Daudi) (human) (Q02223 whole entry): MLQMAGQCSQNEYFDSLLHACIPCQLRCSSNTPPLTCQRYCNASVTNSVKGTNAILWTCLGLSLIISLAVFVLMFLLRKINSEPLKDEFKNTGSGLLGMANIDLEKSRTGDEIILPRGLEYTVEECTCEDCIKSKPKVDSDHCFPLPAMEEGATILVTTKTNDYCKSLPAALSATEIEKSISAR
For test [12] the target is unchanged. Kind of test: flow cytometry on H929 cells; antibody 0.195 ng/ml.
For test [13], the target named is recombinant BCMA (R&D Systems, catalog no. 193-BC) (human) (UniProt Q02223). Kind of test: competitive ELISA, plate-bound BCMA; Ab 2.000 ng/mL; competitor APRIL 15.63 ng/mL.
Test [14] has the same target. Kind of test: competitive ELISA, plate-bound BCMA; Ab 0.020 ng/mL; competitor APRIL 0.00 ng/mL.
For test [15] the target is unchanged. Put plainly: competitive ELISA, plate-bound BCMA; Ab 0.200 ng/mL; competitor APRIL 250.00 ng/mL.
The target in test [16] is T1, human BCMA protein (human, UniProt Q02223 1-54, limits assumed).
T1 sequence (looked up): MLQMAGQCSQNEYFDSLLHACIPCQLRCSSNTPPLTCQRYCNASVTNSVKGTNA
Put plainly: ELISA protein and cell-binding assays.

Test [17] addresses BCMA on BCMA-expressing cells (H929 / NCI-H929, MM1.S, U266, Daudi) (human) (UniProt Q02223). Kind of test: flow cytometry on H929 cells; antibody 0.098 ng/ml.
For test [18] the target is unchanged. Put plainly: flow cytometry on MM1.S cells; antibody 0000 ng/ml (background).
Test [19] has the same target. Kind of test: flow cytometry on H929 cells; antibody 6.250 ng/ml.
The target in test [20] is recombinant BCMA (R&D Systems, catalog no. 193-BC) (human) (UniProt Q02223). Put plainly: competitive ELISA, plate-bound BCMA; Ab 200.000 ng/mL; competitor APRIL 500.00 ng/mL.
Test [21] concerns the target BCMA on BCMA-expressing cells (H929 / NCI-H929, MM1.S, U266, Daudi) (human) (UniProt Q02223). Put plainly: flow cytometry on MM1.S cells; antibody 12.500 ng/ml.
Test [22] shares this target. Kind of test: flow cytometry on H929 cells; antibody 12.500 ng/ml.
Test [23] has the same target. Put plainly: flow cytometry on H929 cells; antibody 50.000 ng/ml.

B1: anti-BCMA heavy chain-only antibody (UniAb) with the VH of SEQ ID NO: 12 (antibody, V domains shown)
VH: QVQLVESGGGLVQPGGSLRLSCVASGFTFSSNAMSWVRQAPGKGLEWVSAISGSGDYTHYSDSVKGRFTISRDNSKNTLYLQMNSLRAEDTAVYYCAKEVPGGPLVDFDSRGQGTLVTVSS
notes: Heavy chain-only antibody from UniRat; also called Clone ID No: 316302
As to B1, the A450-A570 in test [1] came out at 2.4; in [2] it was 0.0629; in [3] it was 0.203; in test [4] it was 0.0894; in test [6] it was 0.0616; in [7] it was 1.37. Besides, the A450-A570 is 0.0607 in [8]; 0.148 in [9]; 0.0875 in test [10]; 0.0867 in test [13]; 0.063 in test [14]; 0.0615 in test [15]. In addition, in test [20], the A450-A570 is 0.482. Moreover, the MFI amounted to 5100 in test [5]; 7560 in test [11]; 5030 in test [12]; 5060 in test [17]; 2990 in test [18]; 5240 in [19]. The binding result in [16] is “binds”.

B2: AntiX**BCMA_F7E_F7E (bispecific antibody, part only; not given: other chains of three-chain format, not shown: another chain or arm of the molecule)
tandem VH: QVQLVESGGGLVQPGGSLRLSCVASGFTFSSNAMSWVRQAPGKGLEWVSAISGSGDYTHYSDSVKGRFTISRDNSKNTLYLQMNSLRAEDTAVYYCAKEVPGGPLVDFDSRGQGTLVTVSSGGGGSGGGGSQVQLVESGGGLVQPGGSLRLSCVASGFTFSSNAMSWVRQAPGKGLEWVSAISGSGDYTHYSDSVKGRFTISRDNSKNTLYLQMNSLRAEDTAVYYCAKEVPGGPLVDFDSRGQGTLVTVSS
With B2, the A450-A570 was 2.37 in test [1]; 0.0577 in test [2]; 0.637 in test [3]; 0.107 in test [4]; 0.0578 in test [6]; 2.3 in [7]. Also, the A450-A570 in test [8] came to 0.062; in test [9], 0.413; in [10], 0.121; in test [13], 0.107; in test [14] it was 0.057; in test [15] it was 0.0614. The A450-A570 in [20] is 1.41. Besides, the MFI in test [5] was found to be 5060; in test [21], 2180; in test [22], 5680; in test [23], 10900; in [11] it was 20900; in test [12], 5010. Further, the MFI in test [17] was 5070; in [18], 2990; in test [19], 5220.
